Test results taken from the supplement of paper PMC10567573.

B1: TRIM43 (parent)
chain: NNSWIRKNSTMVNSEDIFLLLCLK
B2: SMOC2 (parent)
chain: DCAGSPQKPLCASDGRTFLSRCEF

Variants of: B1
Assay: protein stability index of a GFP-peptide fusion (GPS, HEK-293T) (PSI 1-6); higher = more stable
Conditions: c terminus: a fixed tail appended
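Further: lentivirally expressed fusions sorted by FACS into six bins by GFP to DsRed ratio, PSI derived from sequencing read proportions per bin multiplied by bin number.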

Protein stability index of substitutions, site by site:
M11: E 1.74 | K 2.38 | V 2.69 | T 3.06 | N 1.86 | W 2.44
D16: I 2.17 | N 4.97 | W 3.2 | P 2.23 | H 1.71
I5: F 2.91 | A 2.47 | V 2.27 | H 3.14 | T 3.2 | Y 2.56 | M 2.4 | S 3.64 | P 3.31
L23: N 1.66 | E 1.93 | T 2.42 | Q 2.38
R6: L 2.03 | K 3.09 | G 2.76 | E 1.89
L19: S 1.63 | P 1.95 | K 1.54 | V 3.1
N1: T 2.58 | S 2.39 | A 2.72 | V 3.04 | K 3.25 | E 4.19 | G 2.73 | D 2.27
L20: Q 3.05 | W 3.12 | G 1.48 | M 3.31 | A 2.14
F18: L 2.54 | R 2.63 | Y 4.65 | V 2.92
K7: R 4.2 | A 4.36 | F 2.97 | P 3.02 | G 3.14 | M 2.73 | E 2.84 | V 2.61
W4: C 3.11 | K 2.72 | N 2.4 | V 3 | L 1.6 | G 2.06
K24: V 2.38 | I 2.33 | D 3.92 | H 2.87 | G 3.84 | S 3.16
S14: Y 2.89 | Q 3.26 | M 2.13 | N 2.82 | F 2.64
N2: H 2.3 | R 2.93 | E 3.2 | Q 2.59
T10: Q 3.06 | D 1.98 | I 4.37 | R 2.52 | G 2.9 | F 3.41 | W 4.55
I17: S 2.6 | A 2.04 | H 2.5
C22: Y 3.36 | A 1.91 | I 2.66 | K 2.13 | P 2.44
S9: N 2.49 | C 2.28 | Q 2.69 | M 2.34 | T 2.62 | I 3.83
E15: C 2.74 | I 2.72 | V 3.11 | N 2.88 | K 2.89 | M 2.26
N8: D 3.07 | P 2.28 | T 3.13 | E 3.74 | M 2.46 | A 2.9 | G 2.72
S3: N 2.48 | L 2.9 | D 2.66 | T 4.59 | W 3.13 | Y 3.59 | R 2.59
V12: A 2.57 | E 2.92 | N 3.36 | K 2.75 | M 3.38 | T 4.1
N13: A 3.6 | R 2.39 | W 3.07 | H 3 | D 3.31 | K 3.69
L21: S 2.65 | T 2.96 | A 2.13 | R 1.94 | D 1.92 | W 2.91 | M 3.25

Variants of: B2
Assay: as above
Conditions: c terminus: a fixed tail appended

Protein stability index: each site, then its substitutions
C11: H 2.73 | E 3.46 | R 2.28 | D 3.79 | N 2.67 | Y 2.58 | M 3.23 | G 2.04 | A 2.7 | I 2.56 | W 2.41 | L 3.3 | K 2.72 | P 3.47 | T 2.48 | V 2.66 | Q 2.82 | F 1.8 | S 3.19
C2: K 3.03 | E 3.84 | Q 3.12 | P 3.4 | D 3.44 | T 3.5 | S 2.18 | W 2.23 | I 2.25 | V 2.58 | Y 2.63 | F 3.25 | N 2.81 | A 2.79 | R 3.19 | H 3.36 | G 3.66 | M 2.86
P9: V 2.4 | Y 2.47 | T 2.69 | M 2.63 | K 1.85 | H 2.36 | D 2.97 | S 3.08 | F 1.99 | C 2.65 | G 2.73 | W 1.04 | R 2.77 | Q 3.13 | I 2.04 | A 3.42 | E 2.72
A12: C 1.59 | D 2.88
S5: E 2.56 | W 2.46 | T 2.24 | A 2.94 | P 2.72 | G 3.07 | M 2.52 | L 2.46 | Q 2.09 | R 2.66 | Y 2.68 | K 2.72 | I 2.14 | C 2.24 | D 2.96 | F 1.72 | V 2.76 | N 2.78
A3: S 2.32 | N 2.66 | R 2.38 | F 3.16 | Y 2.02 | V 2.66 | Q 2.82 | P 2.37 | D 2.95 | I 2.71 | T 2.56 | H 2.29 | W 2.21 | K 2.89 | L 2.73 | E 3.01
Q7: N 1.96 | V 2.39 | L 2.11 | M 2.73 | W 2.55 | Y 2.36 | D 2.94 | K 3.04 | H 2.1 | R 3.06 | G 2.88 | T 2.46 | F 1.75 | E 1.81 | C 2.26 | A 2.51 | I 1.83
P6: C 2.14 | N 2.66 | Q 2.75 | I 2.34 | R 2.19 | K 1.69 | F 1.76 | L 2.18 | A 1.73 | Y 2.62 | G 2.62 | S 3.39 | D 2.46 | E 3.15 | V 1.8 | T 2.53 | W 2.08 | H 2.21
G4: I 2.87 | R 2.08 | K 2.65 | E 3.83 | H 3.44 | P 2.56 | C 3.17 | S 2.24 | M 2.32 | N 2.62 | V 2.47 | W 2.32 | T 3.2 | Y 2.22 | L 2.56 | Q 2.88 | A 2.77 | F 2.23 | D 4.36
K8: F 3.62 | D 3.33 | E 2.17 | N 2.3 | Y 1.9 | S 2.34 | H 2.48 | V 2.13 | Q 2.77 | L 2.41 | T 2.69 | C 2.18 | I 2.68 | G 2.94 | M 2.23 | W 2.46 | R 2.83
D1: M 1.7 | V 2.35 | K 2.59 | A 1.89 | E 3.69 | H 2.02 | P 2.66 | T 2.59 | Y 1.72 | F 1.5 | G 2.38 | N 2.2 | R 1.55 | S 1.93 | I 2.92 | L 2.85
L10: R 2.48 | A 2.92 | Y 2.47 | I 2.63 | D 3.29 | S 2.97 | N 2.08 | E 3.84 | F 1.82 | K 3.1 | W 2.16 | M 2.56 | C 2.85 | P 2.93 | V 2.28 | H 3.54 | G 3.23 | T 2.65 | Q 4.04
